This note sets out measurements from PMC3907796.

This assay has as its target DAO-6H (recombinant D-amino acid oxidase with C-terminal (His)6) (UniProt P14920).

DAO-6H (recombinant D-amino acid oxidase with C-terminal (His)6), sequence (P14920 whole entry): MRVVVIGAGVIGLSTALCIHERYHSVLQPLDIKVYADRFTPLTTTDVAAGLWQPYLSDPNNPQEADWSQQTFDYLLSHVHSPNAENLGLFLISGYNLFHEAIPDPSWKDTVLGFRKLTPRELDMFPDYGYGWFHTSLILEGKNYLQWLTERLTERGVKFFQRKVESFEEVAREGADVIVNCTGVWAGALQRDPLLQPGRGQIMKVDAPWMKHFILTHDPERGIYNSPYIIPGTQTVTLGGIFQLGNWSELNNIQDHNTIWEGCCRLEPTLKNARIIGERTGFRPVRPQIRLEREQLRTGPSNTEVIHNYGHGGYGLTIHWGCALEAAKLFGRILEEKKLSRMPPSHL

B1: G72-6H (recombinant full-length G72 with C-terminal (His)6, refolded) (natural protein)
chain: MLEKLMGADSLQLFRSRYTLGKIYFIGFQRSILLSKSENSLNSIAKETEEGRETVTRKEGWKRRHEDGYLEMAQRHLQRSLCPWVSYLPQPYAELEEVSSHVGKVFMARNYEFLAYEASKDRRQPLERMWTCNYNQQKDQSCNHKEITSTKAE
Consider B1, for which the initial velocity (V0) of DAO activity (400 nM DAO-6H, 40 mM D-alanine, 25 °C) with 0, 1, 3, 10 μM G72; V0 at 10 μM, fold of DAO alone in parentheses (mol hydrogen peroxide produced/min/g DAO) amounted to 8.06.
